22 sequences from the DeepSol protein solubility set can be followed below.

The nature of this series: soluble on expression in E. coli; label from the status in PepcDB or PDB records.
Consider “RQNLSSDIDILQSDTMPANAELAGLLQVAVGDTLFRIKVLSKVENRVVDYATMFFPAARLPGLPDAYLRHRSVTRALDDCGVADYTRRFTRVTARLPDAETVDYLGIPKNRPVLHVKSLNVDGEGRPVQYGVTCFNGDLVQLVMEQE”, for which the “soluble on expression in E. coli” value was “not soluble”. “RQVQKELGDVLVRLHNPVVLTPTTVQVTWTVDRQPQFIQGYRVMYRQTSGLQATSSWQNLDAKVPTERSAVLVNLKKGVTYEIKVRPYFNEFQGMDSESKTVRTTEE”: the “soluble on expression in E. coli” value was “soluble”.

“RRLETQKEAEANRGYGKPSLGGPFHLEDMYGNEFTEKNLLGKFSIIYFGFSNCPDICPDELDKLGLWLNTLSSKYGITLQPLFITCDPARDSPAVLKEYLSDFHPSILGLTGTFDEVKNACKKYRVYFSTPPNVKPGQDYLVDHSIFFYLMDPEGQFVDALGRNYDEKTGVDKIVEHVKSYVPAEQRAKQKEAWYSFLFK”: the “soluble on expression in E. coli” value is on record as “soluble”. For the sequence “RSDSMILMTVNPKTKKTTMMSLERDILTRIESGNGQAHEAKLNSAYADGGAELAIETIQKMMNIHIDRYVMVNMRGLQKLVDAVGGITVNNILGFPISISDQEEFNTISIGVGEQHIGGEEALVYARMRYQDPEGDYGRQKRQREVIQKVMEKALS”, the “soluble on expression in E. coli” value is given as “not soluble”. Then “RSTIGAGQKVNVEFVSANPTGPMHVGHVRGAVVGDALARLLAYAGWNVTREYYINDGGAQVDVLARSAFERYREAHGLEPEIREGLYPGDYLIPVGEALKAKYGDSLLDKGEQHWLTEVREFATEMMMQMIREDLAALGVEMDVYSSEKALYGTGKIEAALDRLKEMDLIYEGVLEPPKGKTPEDWEPREQTLFRSTAHGDDVDRPVKKSDGSWTYFAPDIAYHYDKVTRGFDQLIDIFGADHGGYVKRMKAAVAALSAGRVPLDIKLIQLVKLWKNGEPFKMSKRAGTYVTLRDVVEQVGTDVTRFVMLTRKNDATLDFDFDKVLEQSKENPVFYVQYANARINSVLRKAREQGMDVSDA”, with “not soluble”. For the sequence “RTGAELLALTTSTGKSIAQLMWDNERAWHTEAETRTGLLKIWDVMQSCVARGCGIGNPDADGTLPGPFQVKRRAPQLYRALTGNPERALQDPLSMVDWINLYAIAVNEENAAGGRVVTAPTNGAAGIIPAVLHYYTRFTPGANEQGVIDFLMTAAAIGILYKLNASISGAEVGCQGEVGVACSMAAGALAAVLGGTPQQVENAAEIGMEHNLGLTCDPVGGMVQIPCIERNAMASVKAVNAARMALRGDGSHYVSLDSVIKTMRETGADMKTKYKETSRGGLAVN”, the “soluble on expression in E. coli” value was “not soluble”.

For “RTRKGIELIPLDQVIYFIADHKYVTLRHEGGEVLLDEPLKALEDEFGDRFVRIHRNALVARKRIESMKRTPVGHFELFLRGLNGDALIVSRRHVAGVRKMMQQL”, the “soluble on expression in E. coli” value is “not soluble”. Turning to “SAAPRVFPLSCAVQQYAWGKMGSNSEVARLLASSDPLAQIAEDKPYAELWMGTHPRGDAKILDNRISQKTLSQWIAENQDSLGSKVKDTFNGNLPFLFKVLSVETPLSIQAHPNKELAEKLHLQAPQHYPDANHKPEMAIALTPFQGLCGFRPVEEIVTFLKTAAGNNMEDIFGELLLQLHQQYPGDIGCFAIYFLNLLTLKPGEAMFLEANVPHAYLKGDCVECMACSDNTVRAGLTPKFIDVPTLCEMLSYTPSSSKDRLFLPTRSQEDPYLSIYDPPVPDFTIMKTEVPGSVTEYKVLALDSASILLMVQGTVIASTPTTQTPIPLQRGGVLFIGANESVSLKLTEPKDLLIFRACCLL”, the “soluble on expression in E. coli” value was “soluble”. For “SADIYIMGHRYPDMDALGSAFGVARLASFNNRKAWIVLDENEIIPDVKRVLEAIKEYPELEERIISPKEAMKRKKESSLLVMVDYHKPSLSISQELYERFDKVVIIDHHRRGDEFPAKPLLSYIESSASSASELVTELIEYQSNSANKLQAFEATMMLAGIVVDTKSFNTRTTARTFDVASYLRTCGADSSLVQYLLSSDL”, the “soluble on expression in E. coli” value is recorded as “not soluble”. Take “SAEKQAGLVGEPDPEGSSPGTSESWNYDSNCVFCRVAAGQEPKTELFHCENEDLVCFKDIKPAALYHYLVVPKKHIGSCKDLNKDHIEMVESMVAAGKTMLERNNFTDFTDVRMGFHVPPFCSISHLHLHVIAPVKEFGFLSKLVYRQDSYWFVTVDYLLEKLRK”: the “soluble on expression in E. coli” value is “soluble”. As to “SAESWLRLSGAGPAEEAGPEGGLEEPDALDDSLTSLQWLQEFSILNAKAPALPPGGTDPHGYHQVPGSAAPGSPLAADPACLGQPHTPGKPTSSCTSRSAPPGLQAPPPDDVDYATNPHVKPPYSYATLICMAMQASKATKITLSAIYKWITDNFCYFRHADPTWQNSIRHNLSLNKCFIKVPREKDEPGKGGFWRIDPQYAERLLSGAFKKRRLPPVHIHPAFARQAAQEPSAVPRAGPLTVNTEAQQLLREFEEATGEAGWGAGEGRLGHKRKQPLPKRVAKVPRPPSTLLPTPEEQGELEPLKGNFDWEAIFDAGTLGGELGALEALELSPPLSPASHVDVDLTIHGRHIDCPATWGPSVEQAADSLDFDETFLATSFLQHPWDESGSGCLPPEPLFEAGDATLASDLQDWASVGAFL”, the “soluble on expression in E. coli” value is listed as “soluble”. As to “SAFPIDLRGQTAFVAGVADSHGYGWAIAKHLASAGARVALGTWPPVLGLFQKSLQSGRLDEDRKLPDGSLIEFAGVYPLDAAFDKPEDVPQDIKDNKRYAGVDGYTIKEVAVKVKQDLGNIDILVHSLANGPEVTKPLLETSRKGYLAASSNSAYSFVSLLQHFGPIMNEGGSAVTLSYLAAERVVPGYGGGMSSAKAALESDTRTLAWEAGQKYGVRVNAISAGPLKSRAASAIGKSGEKSFIDYAIDYSYNNAPLRRDLHSDDVGGAALFLLSPLARAVSGVTLYVDNGLHAMGQAVDSRSMPPLQRATQEIN”, the “soluble on expression in E. coli” value is listed as “soluble”.

With “SAFQKAASLLGAPIGHDFCVISLSDLMTPWERIERRILAAAQADFVTAVYNPKSDGRYWQIYRLREIFLREGRSPETPVGYVRQAGREEQEIHITTLAAFDPETVDMFTVVLIGNSQTY”, the “soluble on expression in E. coli” value was “not soluble”. Turning to “SAFVAALSAAGLPTDAFVFEGFLPTRGKRRLEKLANLKGEQRVVIFYEAPGRLQAALADMREVLGDRHVVVARELTKIHEEFVRGRVSFVAEHFAAVDVKGEVVILVAPAPAP”, the “soluble on expression in E. coli” value was “soluble”. With “SAGINYVQNYNGNLGDFTYDESAGTFSMYWEDGVSSDFVVGLGWTTGSSNAITYSAEYSASGSASYLAVYGWVNYPQAEYYIVEDYGDYNPCSSATSLGTVYSDGSTYQVCTDTRTNEPSITGTSTFTQYFSVRESTRTSGTVTVANHFNFWAHHGFGNSDFNYQVVAVEAWSGAGSASVTISS” the entry was “soluble”; with “SAIITTTTVRFTDGTSPTFFSSASTKAYNLHFLYSNSTQRLTNPKFGIGGKLKVTVNPYSYTEEVRPEERKSLTDFLTEAGDFVNSDGGDGGPPRWFSPLECGARAPESPLLLYLPGIDGTGLGLIRQHKRLGEIFDIWCLHFPVKDRTPARDIGKLIEKTVRSEHYRFPNRPIYIVGESIGASLALDVAASNPDIDLVLILANPVTRFTNLMLQPVLALLEILPDGVPGLITENFGFYQEMFETMLNENDAAQMGRGLLGDFFATSSNLPTLIRIFPKDTLLWKLQLLKSASASANSQMDTVNAQTLILLSGRDQWLMNKEDIERLRGALPRCEVRELENNGQFLFLEDGVDLVSIIKRAYYYRRGKSLDYISDYILPTPFEFKEYEESQRLLTAVTSPVFLSTLKNGAVVRSLAGIPSEGPVLYVGNHMLLGMELHAIALHFLKERNILLRGLAHPLMFTKKTGSKLPDMQLYDLFRIIGAVPVSGMNFYKLLRSKAHVALYPGGVREALHRKGEEYKLFWPEHSEFVRIASKFGAKIIPFGVVGEDDLCEMVLDYDDQMKIPFLKNLIEEITQDSVNLRNDEEGELGKQDLHLPGIVPKIPGRFYAYFGKPIDTEGREKELNNKEKAHEVYLQVKSEVERCMNYLKIKRETDPYRNILPRSLYYLTHGFSSQIPTFDLRNH”, “not soluble”. With “SALTAALSVCPLPSSSFFFAGFLPHKKGRKSRLEFLASIDSTIVLYESPHRIGRLMEEVKEHFPDAQVFAAREITKMHEEYVTGTPDELANHFTGQKQRGEFVVVVHPPDKH” the entry was “not soluble”; with “SAQESLESQEQRARAALRERYLRSLLAMVGHQVSFTLHEGVRVAAHFGATDLDVANFYVSQLQTPIGVQAEALLRCSDIISYTFKP”, “soluble”.

“SARKKIREYDSKRLLKEHLKRLANIDLQIRSAQVTESTDFTELTNQESWLSSTKLVVKPDMLFGKRGKSGLVALKLDLAEVADFVKARLGTEVEMEGCKAPITTFIVEPFVPHDQEYYLSIVSDRLGCTISFSECGGIEIEENWDKVKTIFLPAEKSMTLEVCAPLIATLPLEVRAKIGNFIMGAFAVFQDLDFSFMEMNPFTLVDGEPFPLDMRGELDDTAAFKNFNKWGDIEFPLPFGRVLSSTENFIHGLDEKTSASLKFTVLNPKGRIWTMVAGGGASVIYADTVGDLGYASELGNYAEYSGAPNEEEVLQYARVVIDCATTDPDGRKRALLIGGGIANFTDVAATFNGIIRALREKETRLKASRMHIYVRRGGPNYQTGLARMRALGEELGVPLEVYGPEATMTGICKRAIDCIMLPDA”: the “soluble on expression in E. coli” value is listed as “not soluble”. With “SASEDAALDATGHKKGEPAFGVTIPKGTTYRDSDGKEVPHPCVDRKIGYQGHFDALYGTYNYSVKEPATDLPKLELMAVDGQQVVPQESLCFRLPPDAGEDGEELSRIRIPDDEEFSFLGKPGDIVWYAPQNIPFANGHRPIWAGIGAFDPHHEPKGKDSIPEHLDKNMYFELKDFSGPGDVNVFFKNNSRKEVERIFSSNDEELKTIEYEMGSHGHFNWTFSKPGIYELTWEAYVKNGAFKVKTEPVRQIWLVGSDEEVGLPEGTTTNLNKITKPLDKDATNEPPTDPSEKKKPPRPEKGHSETSSPSALDDSIERAWKLTGTPKTIINDGHMDLALTRPDKEFVTVINREGKKYSSGDVTLAVPDSGGDQGGPLVKTDSWKDRIEAQISGSLPDQAWVLPESQDHKLPWVGFSNEDLPSDALLPDSKMTVSLNKVELPHDGRMISWHNGISGIDLLTDTDDLSKNLEYGLHAHDHQSMLFTKEGAYGLEYSFDITTASGKQESYPLHISYLVGDATIARAKEILAGEKLGGSLKKKPQEKETKKPASVQNKSGKHNKDTVGSESARKRQQLAATSGSDTNGIYSFHDGDVQDEAVTTAAEWQELDT” the entry was “not soluble”; with “SASKIKGRPPKQPKVTPALPSNDSQQLHENNPGNNLALETCGESSSSHGTGGPKPGPSKKTLNERKRKYGVSVNKTVQNIEWNVDHFLKVQHERRQELYKDYSHQFLTLVMMWNIDVDQIKKQAGKLSDILDEQQKLFQQFQSIHMQKIEEFKELCDRHLKNLQAIKCCRRKAIIEEARKLMDYLEKRVTEETVHVNKQEAKDGVQSSLLSLLIS”, “soluble”; with “SASRGYLHHLLTAEGAWEEFVSKAKLPRDRAVALHKALRDLTALLAIAERGRSRKGWKGKEKFVKAFPCLKADLEEHISQLYALADHAEELHRGCTVSNMVADSFSVASDILNLFGLFLAPESAEGSLVLSAAGLGLGVAATVTNVATSIMKETSRVLDGVEAGHHGSTAMDILEEAGTSVARIASEIPQATRDITRDLEALEQHMNALSLVRANPRLEEDARALINAGSIPAQRAKQVRASLKGTPLAMSKEDRIRSATTTGVTLLRDVGSLVNESKQLYEGSASESAAALRKLAQELEEKLGELMKFYETI”, “not soluble”.
